Test results reported in IntAct's records for PubMed 18369319.

B1: Beta-adrenergic receptor kinase 1 (Homo sapiens), P25098 (parent)
chain: MADLEAVLADVSYLMAMEKSKATPAARASKKILLPEPSIRSVMQKYLEDRGEVTFEKIFSQKLGYLLFRDFCLNHLEEARPLVEFYEEIKKYEKLETEEERVARSREIFDSYIMKELLACSHPFSKSATEHVQGHLGKKQVPPDLFQPYIEEICQNLRGDVFQKFIESDKFTRFCQWKNVELNIHLTMNDFSVHRIIGRGGFGEVYGCRKADTGKMYAMKCLDKKRIKMKQGETLALNERIMLSLVSTGDCPFIVCMSYAFHTPDKLSFILDLMNGGDLHYHLSQHGVFSEADMRFYAAEIILGLEHMHNRFVVYRDLKPANILLDEHGHVRISDLGLACDFSKKKPHASVGTHGYMAPEVLQKGVAYDSSADWFSLGCMLFKLLRGHSPFRQHKTKDKHEIDRMTLTMAVELPDSFSPELRSLLEGLLQRDVNRRLGCLGRGAQEVKESPFFRSLDWQMVFLQKYPPPLIPPRGEVNAADAFDIGSFDEEDTKGIKLLDSDQELYRNFPLTISERWQQEVAETVFDTINAETDRLEARKKAKNKQLGHEEDYALGKDCIMHGYMSKMGNPFLTQWQRRYFYLFPNRLEWRGEGEAPQSLLTMEEIQSVEETQIKERKCLLLKIRGGKQFILQCDSDPELVQWKKELRDAYREAQQLVQRVPKMKNKPRSPVVELSKVPLVQRGSANGL
partner: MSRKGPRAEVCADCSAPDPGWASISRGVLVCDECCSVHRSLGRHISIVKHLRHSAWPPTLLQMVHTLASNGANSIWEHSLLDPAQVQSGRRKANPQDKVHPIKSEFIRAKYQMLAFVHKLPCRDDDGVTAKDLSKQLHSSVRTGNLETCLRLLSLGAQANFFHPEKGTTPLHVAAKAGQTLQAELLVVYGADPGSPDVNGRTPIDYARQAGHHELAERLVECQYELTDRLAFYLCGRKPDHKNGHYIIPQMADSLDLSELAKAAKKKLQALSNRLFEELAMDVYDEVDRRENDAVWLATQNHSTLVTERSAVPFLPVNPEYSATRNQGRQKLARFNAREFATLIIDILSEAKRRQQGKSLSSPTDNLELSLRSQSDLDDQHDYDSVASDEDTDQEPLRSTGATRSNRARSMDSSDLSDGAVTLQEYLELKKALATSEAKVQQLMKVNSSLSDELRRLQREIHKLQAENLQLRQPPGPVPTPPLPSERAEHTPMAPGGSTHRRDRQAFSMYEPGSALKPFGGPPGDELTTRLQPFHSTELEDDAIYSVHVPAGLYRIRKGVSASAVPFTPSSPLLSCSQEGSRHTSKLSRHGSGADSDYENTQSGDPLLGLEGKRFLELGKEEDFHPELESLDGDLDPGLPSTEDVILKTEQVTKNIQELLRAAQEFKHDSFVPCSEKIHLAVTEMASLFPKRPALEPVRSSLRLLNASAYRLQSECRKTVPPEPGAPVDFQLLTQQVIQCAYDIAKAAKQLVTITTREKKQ

Variants of: B1
Details: with git1_human GIT1, Q9Y2X7

effect of a mutation on the interaction | Variant
disrupting interaction | S670D

Variants of: B1
Details: with git1_human GIT1, Q9Y2X7
Remark: another data set of the same source

effect of a mutation on the interaction | Variant
increasing interaction | S670A

Variants of: B1
Details: with git1_human GIT1, Q9Y2X7
Remark: another data set of the same source

effect of a mutation on the interaction | Variant
increasing interaction | Y86D;Y92D

Variants of: B1
Details: with git1_human GIT1, Q9Y2X7
Remark: another data set of the same source

effect of a mutation on the interaction | Variant
disrupting interaction | Y13F;Y86F;Y92F
